Laboratory results from article PMC2186201.

Target: human C3bi, bound to erythrocytes (EC3bi) (human) (UniProt P01024)
Test: conglutinin-dependent hemagglutination

B1: bovine conglutinin (natural protein)
chain: AEMTTFSQKILANACTLVMCSPLESGLPGHDGQDGRECPHGEKGDPGSPGPAGRAGRPGWVGPIGPKGDNGFVGEPGPKGDTGPRGPPGMPGPAGREGPSGKQGSMGPPGTPGPKGETGPKGGVGAPGIQGFPGPSGLKGEKGAPGETGAPGRAGVTGPSGAIGPQGPSGARGPPGLKGDRGDPGETGAKGESGLAEVNALKQRVTILDGHLRRFQNAFSQYKKAVLFPDGQAVGEKIFKTAGAVKSYSDAEQLCREAKGQLASPRSSAENEAVTQMVRAQEKNAYLSMNDISTEGRFTYPTGEILVYSNWADGEPNNSDEGQPENCVEIFPDGKWNDVPCSKQLLVICEF
**Q.** Which conglutination (percent of activity) does the source give for B1 here?
**A.** 100%
